Source: the supplement of paper PMC10567573

B1: NECAB1 (parent)
chain: NLDTEELCEYFSQHLGEYENVLAA

Variants of: B1
Experiment: protein stability index of a GFP-peptide fusion (GPS, HEK-293T) (PSI 1-6); higher = more stable
Conditions: c terminus: a fixed tail appended
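Further: lentivirally expressed fusions sorted by FACS into six bins by GFP to DsRed ratio, PSI derived from sequencing read proportions per bin multiplied by bin number.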

Protein stability index: each site, then its substitutions
L2: K 3.9, F 3.05, S 4.11, G 3.85, A 2.99, V 1.79, H 3.52, E 4.97, T 3.52, I 2.23, C 2.25, M 3.46, R 4
N20: Y 3.07, L 1.23, G 3.22, K 1.94, M 1.93, H 2.67, E 2.74, V 4.33, Q 2.14, S 3.05, F 1.66, T 1.78, A 2.03, R 2.25, D 2.71, C 2.05, I 1.59, P 2.32
A24: E 3.53, C 2.25, L 2.82, S 3.21, N 2.02, W 2.27, H 3.35, F 2.02, K 2.69, D 3.98
E9: D 3.15, Y 1.76, L 1.91, G 2.97, K 2.25, V 1.93, I 2.47, T 2.3, S 2.04, Q 2.05, H 2.38
Y10: D 4.99, K 4.33, I 3.97, R 4.08, E 4.69, H 4.12, S 5.13, V 4.24, W 2.22, M 4.18, A 4.25
H14: M 2.98, E 4.47, G 3.81, K 2.73, R 2.12, W 1.84, T 4.11, V 3.01, F 2.02, S 3.81, P 4.44
G16: Q 2.71, S 2.48, F 2.27, N 1.95, I 2.14, E 2.04, Y 1.58, T 2.04, K 1.81, A 2.24, M 1.99, W 2.29, D 2.29
L15: E 4.45, S 3.47, W 2.65, P 4.55, V 2.04, A 3.36, D 4.63, F 2.94, Q 4, H 3.91, N 4.48, K 4.02, Y 2.93, T 3.28
Y18: L 2.3, V 3.14, I 2.07, T 4.37, A 4.2, H 4.47, W 1.8, N 4.27, R 4.21, Q 4.61, P 4.28
E6: T 2.34, M 1.71, F 2.41, V 2.38, S 1.92, L 1.74, K 2.08, G 1.81, D 2.53, Q 1.64, P 3.82, A 2.27, N 2.42, I 2.13, Y 2.46
T4: K 2.69, R 3.05, S 3.32, N 3.62, W 2.63, C 2.64, M 2.66, I 2.41, V 2.12, G 3.91, A 2.75, L 2.15, H 4.26
Q13: G 3.3, N 2.89, R 3.25, E 2.83, I 2.19, D 4.13, W 2.1, C 2.06, M 2.06, Y 2.2, K 2.36, T 3.27, L 2.08
L7: P 4.29, Y 3.94, R 4.49, N 4.63, F 3.55, I 3.01, M 4.26, K 4.7, H 4.63, C 3.85, S 4.53, D 4.92, A 4.43, T 4.42
E5: C 1.92, M 1.63, Y 1.69, V 2.1, G 1.99, T 2.4, K 1.94, I 1.99, S 1.93, H 2.1, P 3.13, F 1.47
D3: P 3.14, K 1.86, L 2.01, V 1.53, E 3.24, G 1.48, R 1.59, A 2.25, S 2.55, N 1.64, F 2.36, Y 1.94, H 2.11
V21: G 4.32, H 3.14, L 2.76, C 3.01, E 4.2, A 2.9, W 1.68, Y 1.98, R 2.97, N 4.05, M 1.88, D 4.86, I 1.83
S12: R 2, D 4, G 4, A 2.59, E 3.83, Q 2.55, K 2.09, F 3.17, V 2.28, M 1.98, I 2.68, N 3.07, W 3.15, P 4.53
E19: V 1.53, T 2.07, Q 2.4, C 1.83, P 2.91, Y 1.93, N 2.87, D 3.98, W 1.82, A 1.66, I 4.56, F 1.97
C8: L 2.86, A 2.98, K 3.9, F 3.26, S 3.83, Q 3.52, R 3.17, H 4.07
F11: L 2, K 5.08, M 3.48, W 3.85, D 4.87, P 5.13, C 4.03, G 4.55, H 4.26, N 5.01, I 3.59, Y 4.33, Q 4.44, S 4.65
E17: N 2.14, G 2.81, I 2.84, V 2.33, Q 1.66, Y 2.65, H 1.54, R 2.76, D 2.88, W 2.11, K 1.34, F 2.33
N1: I 2.66, P 3.68, D 1.87, F 1.68, A 2.94, V 3.12, Y 1.83, H 3.35, C 2.67, S 3.93, R 3.54, L 2.53, T 3.22, K 3.33, Q 3.41
L22: W 2.55, A 4.35, S 4.64, T 4.36, N 4.36, M 3.71, V 3.26, F 1.86, Q 4.36, R 4.39, G 4.3, Y 3.52, H 4.32, D 4.98, I 2.53, K 4.61, E 4.42, C 4.64
A23: S 2.23, K 2.17, N 3.98, H 2.83, R 2.51, W 1.91, G 2.93, T 3.06, M 2.18, E 4.5, V 2.21, L 1.75, Y 2.2, P 3.65, C 2.46
